Data published in the supplement of paper PMC9112550, “Optimization of the antimicrobial peptide Bac7 by deep mutational scanning” (BMC Biology, 2022).

Test system: Escherichia coli TOP10
Assay: shrunken log2 fold change of peptide-encoding DNA abundance (4.5 h post-induction vs induction); higher = less antimicrobial activity (less host growth inhibition)
Settings: time post-induction: 4.5 h; library: site-saturation at positions 5, 18, 19, 20
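Note: peptides expressed intracellularly from a pBAD plasmid library in pooled LB shake-flask culture, induced with 0.3% L-arabinose, DNA abundance read by NGS, three biological replicates, DESeq2 with apeglm shrinkage.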

| Sequence | shrunken log2 fold change |
| --- | --- |
| RRIRERPPRLPRPRPRPKLPPRP | 0.0983 |
| RRIRERPPRLPRPRPRPKMPPRP | -0.0401 |
| RRIRERPPRLPRPRPRPKMYPRP | -0.898 |
| RRIRERPPRLPRPRPRPKNAPRP | -0.352 |
| RRIRERPPRLPRPRPRPKNPPRP | -0.503 |
| RRIRERPPRLPRPRPRPKPHPRP | 0.000708 |
| RRIRERPPRLPRPRPRPKPMPRP | 0.21 |
| RRIRERPPRLPRPRPRPKQMPRP | -0.19 |
| RRIRERPPRLPRPRPRPKRGPRP | 0.385 |
| RRIRERPPRLPRPRPRPKRKPRP | 0.25 |
| RRIRERPPRLPRPRPRPKSAPRP | 0.116 |
| RRIRERPPRLPRPRPRPKSDPRP | -0.0784 |
| RRIRERPPRLPRPRPRPKTAPRP | -0.0233 |
| RRIRERPPRLPRPRPRPKTCPRP | -0.267 |
| RRIRERPPRLPRPRPRPKTNPRP | -0.293 |
| RRIRERPPRLPRPRPRPKVKPRP | 0.0263 |
| RRIRERPPRLPRPRPRPKWRPRP | -0.102 |
| RRIRERPPRLPRPRPRPKYIPRP | -0.0434 |
| RRIRERPPRLPRPRPRPKYRPRP | -0.00726 |
| RRIRERPPRLPRPRPRPLCGPRP | -0.2 |
| RRIRERPPRLPRPRPRPLCPPRP | -0.393 |
| RRIRERPPRLPRPRPRPLDNPRP | -0.487 |
| RRIRERPPRLPRPRPRPLIHPRP | -0.522 |
| RRIRERPPRLPRPRPRPLLAPRP | 0.173 |
| RRIRERPPRLPRPRPRPLLHPRP | -0.288 |

| Sequence | shrunken log2 fold change |
| --- | --- |
| RRIRERPPRLPRPRPRPLNEPRP | -0.13 |
| RRIRERPPRLPRPRPRPLNFPRP | -0.34 |
| RRIRERPPRLPRPRPRPLQFPRP | -0.468 |
| RRIRERPPRLPRPRPRPLRFPRP | 0.493 |
| RRIRERPPRLPRPRPRPLRRPRP | 0.303 |
| RRIRERPPRLPRPRPRPLWIPRP | -0.558 |
| RRIRERPPRLPRPRPRPLYIPRP | -0.668 |
| RRIRERPPRLPRPRPRPLYLPRP | -0.77 |
| RRIRERPPRLPRPRPRPMCEPRP | 0.0303 |
| RRIRERPPRLPRPRPRPMCQPRP | -0.051 |
| RRIRERPPRLPRPRPRPMCSPRP | -0.00794 |
| RRIRERPPRLPRPRPRPMDYPRP | -0.214 |
| RRIRERPPRLPRPRPRPMFCPRP | -0.168 |
| RRIRERPPRLPRPRPRPMFHPRP | -0.897 |
| RRIRERPPRLPRPRPRPMGYPRP | -0.0965 |
| RRIRERPPRLPRPRPRPMIHPRP | -0.65 |
| RRIRERPPRLPRPRPRPMKHPRP | -0.794 |
| RRIRERPPRLPRPRPRPMKKPRP | 0.00499 |
| RRIRERPPRLPRPRPRPMKRPRP | -0.312 |
| RRIRERPPRLPRPRPRPMKVPRP | -0.0915 |
| RRIRERPPRLPRPRPRPMKYPRP | 0.0847 |
| RRIRERPPRLPRPRPRPMLEPRP | 0.282 |
| RRIRERPPRLPRPRPRPMLLPRP | -0.166 |
| RRIRERPPRLPRPRPRPMMAPRP | -0.128 |
| RRIRERPPRLPRPRPRPMMHPRP | 0.0413 |

| Sequence | shrunken log2 fold change |
| --- | --- |
| RRIRERPPRLPRPRPRPMNLPRP | -0.0666 |
| RRIRERPPRLPRPRPRPMNVPRP | -0.00243 |
| RRIRERPPRLPRPRPRPMQLPRP | 0.0995 |
| RRIRERPPRLPRPRPRPMQWPRP | 0.00938 |
| RRIRERPPRLPRPRPRPMRNPRP | -0.062 |
| RRIRERPPRLPRPRPRPMRPPRP | 0.772 |
| RRIRERPPRLPRPRPRPMSAPRP | 0.00792 |
| RRIRERPPRLPRPRPRPMSDPRP | -0.235 |
| RRIRERPPRLPRPRPRPMSPPRP | -0.0381 |
| RRIRERPPRLPRPRPRPMTAPRP | -0.0417 |
| RRIRERPPRLPRPRPRPMTEPRP | -0.116 |
| RRIRERPPRLPRPRPRPMTHPRP | -0.0346 |
| RRIRERPPRLPRPRPRPMVCPRP | -0.0478 |
| RRIRERPPRLPRPRPRPMVPPRP | -0.103 |
| RRIRERPPRLPRPRPRPMWLPRP | -0.07 |
| RRIRERPPRLPRPRPRPMWRPRP | -0.0079 |
| RRIRERPPRLPRPRPRPNAMPRP | 0.0107 |
| RRIRERPPRLPRPRPRPNCIPRP | -0.712 |
| RRIRERPPRLPRPRPRPNDYPRP | -0.41 |
| RRIRERPPRLPRPRPRPNEDPRP | -0.151 |
| RRIRERPPRLPRPRPRPNEIPRP | -0.181 |
| RRIRERPPRLPRPRPRPNFVPRP | 0.0109 |
| RRIRERPPRLPRPRPRPNFYPRP | -0.261 |
| RRIRERPPRLPRPRPRPNGGPRP | -0.0469 |
| RRIRERPPRLPRPRPRPNHGPRP | -0.348 |
